Experimental data reported in the supplement of paper PMC9112550, “Optimization of the antimicrobial peptide Bac7 by deep mutational scanning” (BMC Biology, 2022).

Test system: Escherichia coli TOP10
Assay: shrunken log2 fold change of peptide-encoding DNA abundance (4.5 h post-induction vs induction); higher = less antimicrobial activity (less host growth inhibition)
Settings: time post-induction: 4.5 h; library: site-saturation at positions 5, 18, 19, 20
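Also: peptides expressed intracellularly from a pBAD plasmid library in pooled LB shake-flask culture, induced with 0.3% L-arabinose, DNA abundance read by NGS, three biological replicates, DESeq2 with apeglm shrinkage.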

Sequence	shrunken log2 fold change
RRIRWRPPRLPRPRPRPQMDPRP	-0.12
RRIRHRPPRLPRPRPRPEQVPRP	-0.0321
RRIRARPPRLPRPRPRPHYAPRP	-0.0521
RRIRRRPPRLPRPRPRPDLFPRP	0.41
RRIRIRPPRLPRPRPRPWWFPRP	-0.0772
RRIRNRPPRLPRPRPRPQNIPRP	-0.263
RRIRERPPRLPRPRPRPQHRPRP	0.152
RRIRLRPPRLPRPRPRPIPCPRP	-0.00241
RRIRARPPRLPRPRPRPEGLPRP	0.527
RRIRYRPPRLPRPRPRPSGEPRP	-0.187
RRIRARPPRLPRPRPRPAHLPRP	0.271
RRIRIRPPRLPRPRPRPLIEPRP	-0.475
RRIRARPPRLPRPRPRPDKWPRP	-0.0676
RRIRMRPPRLPRPRPRPMYWPRP	-0.169
RRIRKRPPRLPRPRPRPQQPPRP	-0.041
RRIRHRPPRLPRPRPRPNGGPRP	-0.147
RRIRHRPPRLPRPRPRPKYIPRP	-0.796
RRIRYRPPRLPRPRPRPKPTPRP	0.278
RRIRMRPPRLPRPRPRPEMSPRP	-0.00133
RRIRKRPPRLPRPRPRPGMLPRP	0.542
RRIRSRPPRLPRPRPRPMMRPRP	0.836
RRIRGRPPRLPRPRPRPLRVPRP	1

Sequence	shrunken log2 fold change
RRIRQRPPRLPRPRPRPRKHPRP	0.165
RRIRFRPPRLPRPRPRPVRQPRP	0.0478
RRIRPRPPRLPRPRPRPPWGPRP	0.34
RRIRTRPPRLPRPRPRPAADPRP	0.453
RRIRLRPPRLPRPRPRPADPPRP	0.0111
RRIRVRPPRLPRPRPRPKYFPRP	-0.239
RRIRARPPRLPRPRPRPQDDPRP	0.274
RRIRLRPPRLPRPRPRPLHRPRP	-0.226
RRIRGRPPRLPRPRPRPDHQPRP	0.12
RRIRDRPPRLPRPRPRPECPPRP	0.0118
RRIRTRPPRLPRPRPRPTIYPRP	-0.409
RRIRRRPPRLPRPRPRPRGSPRP	0.729
RRIRFRPPRLPRPRPRPMYKPRP	-0.662
RRIRQRPPRLPRPRPRPRGVPRP	-0.0152
RRIRNRPPRLPRPRPRPYGDPRP	-1.01
RRIRHRPPRLPRPRPRPCTKPRP	0.0647
RRIRCRPPRLPRPRPRPAPPPRP	0.743
RRIRWRPPRLPRPRPRPMFEPRP	-0.0796
RRIRDRPPRLPRPRPRPQNKPRP	-0.475
RRIRYRPPRLPRPRPRPCCSPRP	-0.141
RRIRERPPRLPRPRPRPVNPPRP	-0.0961
RRIRKRPPRLPRPRPRPHMSPRP	0.0205

Sequence	shrunken log2 fold change
RRIRYRPPRLPRPRPRPWGRPRP	-0.186
RRIRERPPRLPRPRPRPPNWPRP	0.368
RRIRHRPPRLPRPRPRPYNGPRP	-0.835
RRIRPRPPRLPRPRPRPNNGPRP	-0.335
RRIRIRPPRLPRPRPRPHRNPRP	-0.846
RRIRHRPPRLPRPRPRPLMIPRP	-0.498
RRIRSRPPRLPRPRPRPNKCPRP	-0.42
RRIRQRPPRLPRPRPRPYIVPRP	0.04
RRIRFRPPRLPRPRPRPQDPPRP	-0.00978
RRIRHRPPRLPRPRPRPTHAPRP	0.233
RRIRERPPRLPRPRPRPPNVPRP	0.149
RRIRNRPPRLPRPRPRPAVKPRP	-0.229
RRIRGRPPRLPRPRPRPYNSPRP	-0.359
RRIRCRPPRLPRPRPRPEAKPRP	0.208
RRIRKRPPRLPRPRPRPQSVPRP	0.139
RRIRNRPPRLPRPRPRPPTYPRP	-0.217
RRIRKRPPRLPRPRPRPKEMPRP	0.682
RRIRKRPPRLPRPRPRPDKMPRP	-0.48
RRIRPRPPRLPRPRPRPFQQPRP	-0.000989
RRIRWRPPRLPRPRPRPTMVPRP	-0.299
RRIRFRPPRLPRPRPRPMPRPRP	0.513
RRIRFRPPRLPRPRPRPLWVPRP	0.0127

Sequence	shrunken log2 fold change
RRIRTRPPRLPRPRPRPCDPPRP	-0.072
RRIRWRPPRLPRPRPRPDGLPRP	0.393
RRIRWRPPRLPRPRPRPDTKPRP	0.00587
RRIRVRPPRLPRPRPRPDEIPRP	0.0183
RRIRVRPPRLPRPRPRPCIAPRP	-0.298
RRIRPRPPRLPRPRPRPSIPPRP	-0.436
RRIRYRPPRLPRPRPRPFFYPRP	-0.614
RRIRNRPPRLPRPRPRPSYMPRP	-1.71
RRIRLRPPRLPRPRPRPQTTPRP	-0.152
RRIRIRPPRLPRPRPRPHTTPRP	0.0536
RRIRDRPPRLPRPRPRPLYVPRP	-0.17
RRIRQRPPRLPRPRPRPPCIPRP	-0.053
RRIRMRPPRLPRPRPRPITLPRP	-0.521
RRIRKRPPRLPRPRPRPEWSPRP	0.0885
RRIRHRPPRLPRPRPRPFTAPRP	-0.559
RRIRKRPPRLPRPRPRPKWNPRP	0.392
RRIRTRPPRLPRPRPRPKKAPRP	-0.0102
RRIRHRPPRLPRPRPRPHQIPRP	0.0658
RRIRSRPPRLPRPRPRPNKPPRP	-0.23
RRIRGRPPRLPRPRPRPVDRPRP	0.297
RRIRDRPPRLPRPRPRPPITPRP	-0.217
RRIRYRPPRLPRPRPRPMSLPRP	0.0155

Sequence	shrunken log2 fold change
RRIRDRPPRLPRPRPRPNKYPRP	-0.828
RRIRNRPPRLPRPRPRPWLGPRP	0.0222
RRIRDRPPRLPRPRPRPMPFPRP	0.00571
RRIRNRPPRLPRPRPRPYLDPRP	-0.181
RRIRVRPPRLPRPRPRPLWDPRP	0.00404
RRIRNRPPRLPRPRPRPTCRPRP	0.142
RRIRNRPPRLPRPRPRPEARPRP	-0.0678
RRIRPRPPRLPRPRPRPICRPRP	-0.276
RRIRVRPPRLPRPRPRPEESPRP	0.246
RRIRPRPPRLPRPRPRPGWFPRP	0.238
RRIRHRPPRLPRPRPRPMHGPRP	-0.00804
RRIRVRPPRLPRPRPRPDLVPRP	0.211
RRIRSRPPRLPRPRPRPPPEPRP	0.852
RRIRSRPPRLPRPRPRPVQIPRP	0.111
RRIRFRPPRLPRPRPRPFKNPRP	-0.46
RRIRNRPPRLPRPRPRPVMIPRP	-0.311
RRIRPRPPRLPRPRPRPYDSPRP	-0.977
RRIRTRPPRLPRPRPRPAALPRP	0.0806
RRIRARPPRLPRPRPRPPQTPRP	0.9
RRIRWRPPRLPRPRPRPQRYPRP	0.0066
RRIRMRPPRLPRPRPRPFVVPRP	-0.254
